Test results taken from the DeepSol protein solubility set.

Experiment: soluble on expression in E. coli; label from the status in PepcDB or PDB records

Sequence	soluble on expression in E. coli
MSDYLSVSTLTKYLKLKFDKDPYLERVYLTGQVSNFRRRPNHQYFSLKDDKSVIQATMWSGHFKKLGFELEEGMKVNVVGRVQLYEPSGSYSIIVEKAEPDGIGALAIQFEQLKKKLSQAGYFDDRHKQLIPQFVRKIGVVTSPSGAVIRDIITTVSRRFPGVEILLFPTKVQGEGAAQEIAQTIALANEKKDLDLLIVGRGGGSIEDLWAFNEECVVEAIFESRLPVISSVGHETDTTLADFVADRRAATPTAAAELATPVTKIDILSWITERENRMYQSSLRLIRTKEERLQKSKQSVIFRQPERLYDGFLQKLDNLNQQLTYSMRDKLQTVRQKQGLLHQKLQGIDLKQRIHIYQERVVQSRRLLSSTMTSQYDSKLARFEKAQDALISLDSSRIVARGYAIIEKNHTLVSTTNGINEGDHLQVKMQDGLLEVEVKDVRQENI	not soluble
MGSDKIHHHHHHMYSYNQLRRVTFNQLGRIAYNSRSSPRRRAVFERLAGARPVVLTQERERLAVLDHANDIILEQEINGIDTVTFNIPFSDEKNQFIQNEHLIQIIDDYYIIRKITHSRGSQGVPITEVYAEALWYDLQFAEPMDISEWEGRAPAIVMADILRGTDWSVGRVELMNVRNVSVEPGVTNRLAALSQLPEVYGGELHFNSEAMTVDFLAPVGRQSGAAIVYEKNIHSIEAIYDTEDLITRIYPYGKENLSIEDINDGVPYLDIRDDPSYEFTDKLRVRILKDDRFTNPFHLREMAEEALKVLSQPRTSYHIKAADLSEMAGMSHEQFFLGDEVRVYDKELGIDIATRIMAWQYNVAEPWNTEIMLESKQPTLSDLLTGIQEGTGFLQSEDTVDSSDMLELSVFNHILNSRADDGFHYWTNSGWEIDAVNGYSGNASFKATGTTGRKVLSQTVYPAHRDHYAISFRSATKEFQTNDGGRVGLEIIVRYDDGTEDEPTFISLT	not soluble
MLEDLIGKAYLESAEDRRRGDRSEEVEAIRKYIRSARRTVVPNWNAEKVDAINDVLRSFNLREAEHLQFNTNWADLTRMPAVTKALMALDISGADLVIARGRLGVPGSGSLLVIMDSRGRLLSAAMSPPHVIHSMEVREAVRSEMTHALERIGFKR	soluble
MQNIHKIKQDMCDIGRRIYNRQFAAANDGNITVRVSENEVLCTPTMHCKGYLTPDDISMIDMTGKQIAGRKKRSSEALLHLEIYKQRADIKSVVHCHPPHATAFAIAREPIPQCILPEVEVFLGDVPITKYETPGGQAFADTIIPFVEKTNVMILANHGTVSYGESVERAYWWTEILDSYCRMLLLAKQLGNVSYLDETKSRELLELKDKWGFKDPRNTSEYEDCDICANDIFRDSWKDSGVERRAFAPPPPIKTSGSASSAPAGVDEEQLVKLITNEVMRQMKASS	not soluble
MGSDKIHHHHHHMPIYVYWGEDDFAIAKAVTTLRDRVLDPLWTSFNYTSFPPEDSEAPIQALNQVMTPVFGAGGRLVWLMNTNLLQNCPENVLAELTRTLSVIPENSFLLLTCRNKPDERLKSTKLLKQSATEFREFPLIPPWKTELLIQAVNQAAQTVGVKLTPKSAELLAEAVGNDTRLLYNEMEKLRLYAEDNNRPIEENTVTRLVRNTTQNSLQLAAAIRVGDTAKALTILADLINAAEPELRIIATLIGQFRTWLWVKLMVESGERNPQAIAQAAEIGNPKRIYFLQQEVQSLSLRQLISCLPLLLELEVTVKQGRAEISILQIKIIELCQLCQRI	not soluble
SLKVYSKDEIVEQAKELAKMISETEEVDFFKKAEAQIHKNENVKRAIDEIKALQKQAVNLQHYGKWEALKKVEAEIDALQDKLDSIPVVQEFKSSQTYVNDLLQLVASTISNNVTDEILISTNGDVLKGETGAAVESKKGNCGC	soluble
MSLADLFASPDDAAAGGAPDTAPLADRLRPRTLGDVVGQEHLTGPDGAIGRMVAAGRLSSIIFWGPPGTGKTTISRLLAHAVGMRFEPISAVFSGVADLKKVFAAAKDHARHGEKTLLFVDEIHRFNRAQQDSFLPFVENGTVTLVGATTENPSFELNAALLSRAQVLILRRLDAAALEQLLDRAEGLMERPLPLDPAAREALLASADGDGRFLLNQVETLYAIDIPEPLDPAGLSALLHRRVAVYDKDREGHYNLISALHKSLRGSDPQAALYYLARMLTAGEEPLYVLRRLVRFATEDIGLADPQAVVQCLAAKDAYDFLGSPEGELAIVQACLYCATAPKSNAAYMAMKASFRSARETGSLMPPMNIVNAPTKLMKQVGYGKNYQYDHDAAEGFSGANYWPEEMEAQTFYAPTDRGFEARVAERMAYWDRLRAERGEGHHHHHH	soluble
GSHMAEDEPFSGAKKLRHLLENTDELIVCPGVYDGLSARTAMELGFKSLYMTGAGTTASRLGQPDLAIAQLHDMRDNADMIANLDPFGPPLIADMDTGYGGPIMVARTVEHYIRSGVAGAHLEDQILTKRCGHLSGKKVVSRDEYLVRIRAAVATKRRLRSDFVLIARTDALQSLGYEECIERLRAARDEGADVGLLEGFRSKEQAAAAVAALAPWPLLLNSVENGHSPLITVEEAKAMGFRIMIFSFATLAPAYAAIRETLVRLRDHGVVGTPDGITPVRLFEVCGLQDAMEVDNGAGGKAFSEGV	soluble
MSLWLPSEATVYLPPVPVSKVVSTDEYVARTNIYYHAGTSRLLAVGHPYFPIKKPNNNKILVPKVSGLQYRVFRIHLPDPNKFGFPDTSFYNPDTQRLVWACVGVEVGRGQPLGVGISGHPLLNKLDDTENASAYAANAGVDNRECISMDYKQTQLCLIGCKPPIGEHWGKGSPCTQVAVQPGDCPPLELINTVIQDGDMVDTGFGAMDFTTLQANKSEVPLDICTSICKYPDYIKMVSEPYGDSLFFYLRREQMFVRHLFNRAGTVGENVPDDLYIKGSGSTANLASSNYFPTPSGSMVTSDAQIFNKPYWLQRAQGHNNGICWGNQLFVTVVDTTRSTNMSLCAAISTSETTYKNTNFKEYLRHGEEYDLQFIFQLCKITLTADVMTYIHSMNSTILEDWNFGLQPPPGGTLEDTYRFVTSQAIACQKHTPPAPKEDPLKKYTFWEVNLKEKFSADLDQFPLGRKFLLQLGLKAKPKFTLGKRKATPTTSSTSTTAKRKKRKL	soluble
GSVDIEVQDLEEFALRPAPQGITIKCRITRDKKGMDRGMFPTYFLHLDREDGKKVFLLAGRKRKKSKTSNYLISVDPTDLSRGGDSYIGKLRSNLMGTKFTVYDNGVNPQKASSSTLESGTLRQELAAVCYETNVLGFKGPRKMSVIVPGMNMVHERVCIRPRNEHETLLARWQNKNTESIIELQNKTPVWNDDTQSYVLNFHGRVTQASVKNFQIIHGNDPDYIVMQFGRVAEDVFTMDYNYPLCALQAFAIALSSFDSKLACE	soluble
TDTLTRDNGAVVGDNQNSQTAGAQGPVLLQDVQLLQKLQRFDRERIPERVVHARGTGVKGEFTASADISDLSKATVFKSGEKTPVFVRFSSVVHGNHSPETLRDPHGFATKFYTADGNWDLVGNNFPTFFIRDAIKFPDMVHAFKPDPRTNLDNDSRRFDFFSHVPEATRTLTLLYSNEGTPAGYRFMDGNGVHAYKLVNAKGEVHYVKFHWKSLQGIKNLDPKEVAQVQSKDYSHLTNDLVGAIKKGDFPKWDLYVQVLKPEELAKFDFDPLDATKIWPDVPEKKIGQMVLNKNVDNFFQETEQVAMAPANLVPGIEPSEDRLLQGRVFSYADTQMYRLGANGLSLPVNQPKVAVNNGNQDGALNTGHTTSGVNYEPSRLEPRPADDKARYSELPLSGTTQQAKITREQNFKQAGDLYRSYSAKEKTDLVQKFGESLADTLTESKNIMLSYLYKEDPNYGTRVAEVAKGDLSKVKSLAASLKD	soluble
MAHHHHHHMQQASAAASDEWRTKFGGGGASHDWQASKGNFTNQEFESYWGQKWPNWLKTEKATYPNAANKKWLEQNPPPKQGPAQAKTAKQLAVYAEEAAALARTYTEGITAAHGRELKAIKTALRAALYGTNKKTARAFRR	soluble
MAHHHHHHMAGEPYLVYLLRCLAHQSGLTQLSPHFAVPTTEIDSDDGGAVAVVTAGHSANHPSRLFWERCVVVGVRVEPTTKNLLQTGWETQPCSHCVSQDGAAADAHDSPSRRSRLCVLPLLYGGTQCGECGHALSLVPTWTRALYLVLQRRDRSRAAAVAYGEEVHRHLWLGVTIDALLYTSATEQQQQLLVVHAAAGPAAAAPSATLPCAETTKGAFHIICQDERVNRLGLKWGDGTAFSAAANLHDVARRVAPQLQGQAHVKRLLLLVVLYIVYYGSHPAAAGSHRHPLHVLLVGPAKTGKSALLREVAQLIGLEAEVLDSTVVRTGGSGGAAGGSSFSAALPIRRSAVLMAGSGMTASTLVLDQLPSTAGGAAAMAPLLEAMERGHGCGAASGEGDAAAGGPDVHELPSTIIAAAGEESAAAVQLAPYFSLLAAVAPTNSLDDTAIISQDVVAASRARSSHSRATSRSMSRATQLSASSPHHSQRGPSISQSTSHRADPSSLSERLTHEDVCYLVRRAAEPVLLNSVVSHAACYDAFIDKLVDCAGLLEETQPSVCHALPPPSACRGQHRVGLPSAACDSLRAAPLAIDEHLRILCALSRARALLEHAEVLRDAGWTAQMRDEVWALYHGHLVAFADLMQRRSCSSGAMASRDPAEVLRTTSWSSSFFDACGGSTAAPAPAGYPSLSRFSGDAAALGRAWKGRMRAMSSREGLGLWHPQKTPSKKRCRLMFVEALRQRQCLSAQVESAVPPPEVEHVFGLLGGSSAFGDPLDVVISQMQEEGLLLRRPGGWRSL	not soluble
MGSDKIHHHHHHMKNLEQRKSWYAEVAINYTSQQRKNWYNDVADAYNRTRPRYPQQLVSRVVELAQLPQNAAILEVGCGPGTATTAFAQLGFSMVCLEPSQNSSQLAQQNCSPYPNVEIINTSFEEWPLEPGKFDAVLAATSFHWVSPEIGYSKAADALKDHCSLILLWNMTPQPEYEVYQRLHEVYQAQAPTLERYEEQEAQEKHLRRFGKAVIDSGRFQDLVSEQLRCDVTYSIDDYLTLLSTLSPYIALDSQQRNSLFTSLRETLEKHCGSSVEISYLSAFHVAKKI	not soluble
MGSDKIHHHHHHMIKKIYFIMVVIGSILLSSCDSYLDIQPVGQVIPTTLTEYRALLTTAYGLKLIDKSVTEFRTDIAMVTDNSNSQNFYSEIEKWNDMSPKDGTREFGWAVYYSVIYYANAIIANKDNIKEGSQEDIDQLVGEAYLLRGYMHFILANLYGQPYTKEGAPETKSIPIKWDLDLEVVLPRNTVKEVYTAILSDIESARGLMHQKEWEAVYAYRFSTLSVDAMESRVRLYMGNWKEAYDAAERILVQKSTLEDLNDPEAKLPNNYTSAEMITAYEFFNDDVTSASILIPAFMEKYDANKDLRRNKYYSLSGDKYISKKSGKAEHNCTFRTGEIYLNAAEAAAQMNKLPEARTRLLQLMEKRYTPEGYAEKKKAVDAMNQADLIKEILEERALELAFEGHRWFDLRRTTRPRIEKVLNGQAYLLEQDDSRYTLRIPQSAIAANPGLLN	not soluble
MGSDKIHHHHHHMSCIIPNIYSQPTDTNLWNILLSSGIPRHYQKGEFVFEKDQPSNGLICLKKGKVKVSSFFSEGSEKIFGILVAPALFGETETLDQGPRMVSATALTHVEIVAISGNKTKELIYTYPDIALSIIQSIGVKLRWTTLQAEDLSTQKIEYRLARLLLDFKHYGIFTSKNNDNCLMITHEELAHFIGTARSKVTTYLNEFAHKGLIRLRRGEIRILDTAGLNKYKYTHKSQA	not soluble
SLGPPPGPPRVSPDPRAELDSTVLLTRSLLADTRQLAAQLRDKFPADGDHNLDSLPTLAMSAGALGALQLPGVLTRLRADLLSYLRHVQWLRRAGGSSLKTLEPELGTLQARLDRLLRRLQLLMSRLALPQPPPDPPAPPLAPPSSAWGGIRAAHAILGGLHLTLDWAVRGLLLLKTR	soluble
